B1: library; numbered along this chain (parent)
chain: MRKPRAAVGSGHRKQAASQEGRQKHAKNNSQAKPSACDGLARQPEEVVLQASVSSYHLFRDVAEVTAFRGSLLSWYDQEKRDLPWRRRAEDEMDLDRRAYAVWVSEVMLQQTQVATVINYYTGWMQKWPTLQDLASASLEEVNQLWAGLGYYSRGRRLQEGARKVVEELGGHMPRTAETLQQLLPGVGRYTAGAIASIAFGQATGVVDGNVARVLCRVRAIGADPSSTLVSQQLWGLAQQLVDPARPGDFNQAAMELGATVCTPQRPLCSQCPVESLCRARQRVEQEQLLASGSLSGSPDVEECAPNTGQCHLCLPPSEPWDQTLGVVNFPRKASRKPPREESSATCVLEQPGALGAQILLVQRPNSGLLAGLWEFPSVTWEPSEQLQRKALLQELQRWAGPLPATHLRHLGEVVHTFSHIKLTYQVYGLALEGQTPVTTVPPGARWLTQEEFHTAAVSTAMKKVFRVYQGQQPGTCMGSKRSQVSSPCSRKKPRMGQQVLDNFFRSHISTDAHSLNSAAQ

Variants of: B1
Assay: 8OG:A repair function score (normalized; synonymous = 0, nonsense = -1) (normalized log-likelihood score); higher = more repair activity (WT-like)
Settings: with 8OG:A DNA repair reporter (GFP) in HEK-293 MUTYH KO cells
Method: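 Saturation mutagenesis (NNN codon scan) of the MUTYH cDNA (521-aa nuclear isoform NM_001048174.1 / NP_001041639), stably expressed under doxycycline induction in HEK-293 MUTYH knockout cells. Cells were co-transfected with an 8OG:A-bearing GFP repair reporter plus mCherry and sorted 72 h later into GFP+ and GFP− bins, three replicates per tile. The Rosace log2 enrichment (GFP+ vs GFP−) was converted per tile to a normalized function score with synonymous variants centered at 0 and nonsense variants (codons 1-471) at -1; low-abundance variants were removed.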
With F250L the “8OG:A repair function score” value was -0.595.
For R60I, the “8OG:A repair function score” value was -0.0738.
For R60T, the “8OG:A repair function score” value was 0.00688.
With P383G the “8OG:A repair function score” value was -0.0743.
L257V was tested, and the “8OG:A repair function score” value was -0.182.
V142S was tested, and the “8OG:A repair function score” value was -0.632.
In the case of L49V, the “8OG:A repair function score” value is reported as -0.0831.
For W321C, the “8OG:A repair function score” value was -0.313.
With R97G the “8OG:A repair function score” value was -0.0171.
For I195Y, the “8OG:A repair function score” value was -0.741.
K493M was tested, and the “8OG:A repair function score” value was -0.00762.
For L349M, the “8OG:A repair function score” value was 0.0308.
With S71Y the “8OG:A repair function score” value was -0.0584.
For W381V, the “8OG:A repair function score” value was 0.0132.
For R389G, the “8OG:A repair function score” value was -0.385.
R389H was tested, and the “8OG:A repair function score” value was -0.403.
With L315H the “8OG:A repair function score” value was -0.308.
For W75K, the “8OG:A repair function score” value was -1.2.
R154E was tested, and the “8OG:A repair function score” value was -1.23.
With G434P the “8OG:A repair function score” value was -0.0275.
In the case of C278W, the “8OG:A repair function score” value is reported as -1.05.
In the case of N251Y, the “8OG:A repair function score” value is reported as -1.01.
For E413H, the “8OG:A repair function score” value was 0.00964.
For F68D, the “8OG:A repair function score” value was -1.87.
In the case of T324D, the “8OG:A repair function score” value is reported as -0.162.
With T511V the “8OG:A repair function score” value was -0.00751.
In the case of Q111D, the “8OG:A repair function score” value is reported as -0.941.
For P443G, the “8OG:A repair function score” value was -0.0689.
With P443D the “8OG:A repair function score” value was -0.00467.
For E433Q, the “8OG:A repair function score” value was 0.165.
In the case of P316N, the “8OG:A repair function score” value is reported as -0.154.
I118W was tested, and the “8OG:A repair function score” value was -0.13.
With E45N the “8OG:A repair function score” value was 0.01.
For Q132A, the “8OG:A repair function score” value was 0.059.
In the case of Q132N, the “8OG:A repair function score” value is reported as -0.0864.
In the case of Q450H, the “8OG:A repair function score” value is reported as 0.0291.
For T228D, the “8OG:A repair function score” value was -0.245.
For D502V, the “8OG:A repair function score” value was -0.0389.
In the case of D502T, the “8OG:A repair function score” value is reported as 0.00564.
For R219I, the “8OG:A repair function score” value was -0.887.
L432V was tested, and the “8OG:A repair function score” value was -0.118.
L180T was tested, and the “8OG:A repair function score” value was -0.439.
For T449D, the “8OG:A repair function score” value was -0.211.
For T449I, the “8OG:A repair function score” value was -0.282.
For N329P, the “8OG:A repair function score” value was -0.438.
V284F was tested, and the “8OG:A repair function score” value was -0.00936.
With A89T the “8OG:A repair function score” value was -0.00868.
With S486F the “8OG:A repair function score” value was 0.00694.
Q232D was tested, and the “8OG:A repair function score” value was -0.0919.
In the case of L403I, the “8OG:A repair function score” value is reported as 0.0162.
In the case of L355F, the “8OG:A repair function score” value is reported as -0.0288.
P494E was tested, and the “8OG:A repair function score” value was 0.0133.
L237V was tested, and the “8OG:A repair function score” value was -0.463.
In the case of L237G, the “8OG:A repair function score” value is reported as -0.848.
For V362F, the “8OG:A repair function score” value was -0.662.
With V362S the “8OG:A repair function score” value was -0.406.
For R246V, the “8OG:A repair function score” value was -0.732.
Q498A was tested, and the “8OG:A repair function score” value was 0.011.
In the case of V301A, the “8OG:A repair function score” value is reported as -0.249.
H407Y was tested, and the “8OG:A repair function score” value was -0.269.
T436D was tested, and the “8OG:A repair function score” value was 0.113.
With T436Q the “8OG:A repair function score” value was 0.0306.
For T436H, the “8OG:A repair function score” value was 0.323.
With H514C the “8OG:A repair function score” value was -0.00794.
In the case of L134N, the “8OG:A repair function score” value is reported as -0.686.
With M125W the “8OG:A repair function score” value was -0.408.
For P34G, the “8OG:A repair function score” value was -0.0669.
In the case of P34H, the “8OG:A repair function score” value is reported as 0.142.
With P34K the “8OG:A repair function score” value was 0.166.
In the case of Q388R, the “8OG:A repair function score” value is reported as 0.206.
With Q202I the “8OG:A repair function score” value was -0.0774.
For H312S, the “8OG:A repair function score” value was -0.0172.
With R163D the “8OG:A repair function score” value was -0.387.
With A445L the “8OG:A repair function score” value was -0.363.
With Q233A the “8OG:A repair function score” value was -0.259.
P474R was tested, and the “8OG:A repair function score” value was 0.00458.
With P474V the “8OG:A repair function score” value was 0.00398.
V207F was tested, and the “8OG:A repair function score” value was -0.875.
A6V was tested, and the “8OG:A repair function score” value was 0.0405.
R189Y was tested, and the “8OG:A repair function score” value was -0.336.
With S292L the “8OG:A repair function score” value was -0.0154.
For G475R, the “8OG:A repair function score” value was 0.00413.
T191D was tested, and the “8OG:A repair function score” value was -1.01.
In the case of V165C, the “8OG:A repair function score” value is reported as -0.0561.
V165P was tested, and the “8OG:A repair function score” value was -1.08.
In the case of S487G, the “8OG:A repair function score” value is reported as -0.00491.
With P225L the “8OG:A repair function score” value was 0.119.
For L73Y, the “8OG:A repair function score” value was -2.08.
In the case of S507E, the “8OG:A repair function score” value is reported as 0.000264.
For T122I, the “8OG:A repair function score” value was 0.0511.
G444E was tested, and the “8OG:A repair function score” value was -0.0932.
In the case of W85P, the “8OG:A repair function score” value is reported as -1.05.
For Q351F, the “8OG:A repair function score” value was -0.101.
H420W was tested, and the “8OG:A repair function score” value was -0.434.
T112G was tested, and the “8OG:A repair function score” value was -0.908.
In the case of T112Q, the “8OG:A repair function score” value is reported as -0.591.
T112A was tested, and the “8OG:A repair function score” value was -1.03.
In the case of T112D, the “8OG:A repair function score” value is reported as -1.3.
For A63E, the “8OG:A repair function score” value was -0.00911.
With F200H the “8OG:A repair function score” value was -0.308.
T176N was tested, and the “8OG:A repair function score” value was 0.0341.
In the case of A238I, the “8OG:A repair function score” value is reported as -0.365.
With R409C the “8OG:A repair function score” value was -0.178.
With R409I the “8OG:A repair function score” value was -0.183.
Q521D was tested, and the “8OG:A repair function score” value was -0.0822.
For V102E, the “8OG:A repair function score” value was -1.11.
For V427A, the “8OG:A repair function score” value was -0.455.
With I421W the “8OG:A repair function score” value was -0.59.
For L501K, the “8OG:A repair function score” value was -0.0877.
For L501A, the “8OG:A repair function score” value was 0.00122.
T116P was tested, and the “8OG:A repair function score” value was -0.326.
In the case of I509F, the “8OG:A repair function score” value is reported as -0.0535.
R157S was tested, and the “8OG:A repair function score” value was -0.182.
With R157Q the “8OG:A repair function score” value was -0.117.
R157E was tested, and the “8OG:A repair function score” value was -0.665.
In the case of V274Q, the “8OG:A repair function score” value is reported as -0.544.
For V274N, the “8OG:A repair function score” value was -0.714.
For R156W, the “8OG:A repair function score” value was -0.133.
With A405C the “8OG:A repair function score” value was 0.144.
With P338F the “8OG:A repair function score” value was -0.101.
For R2V, the “8OG:A repair function score” value was 0.0618.
For E46P, the “8OG:A repair function score” value was 0.0495.
With P84Q the “8OG:A repair function score” value was -0.242.
With R495V the “8OG:A repair function score” value was 0.0193.
Y76S was tested, and the “8OG:A repair function score” value was -1.16.
With D61S the “8OG:A repair function score” value was -0.013.
With Y425P the “8OG:A repair function score” value was -0.934.
With Y425A the “8OG:A repair function score” value was -0.637.
For F504T, the “8OG:A repair function score” value was 0.0122.
With Q282L the “8OG:A repair function score” value was -0.0273.
For S298N, the “8OG:A repair function score” value was -0.0213.
E92W was tested, and the “8OG:A repair function score” value was -0.152.
In the case of L387D, the “8OG:A repair function score” value is reported as 0.259.
In the case of L387P, the “8OG:A repair function score” value is reported as -0.26.
With K3G the “8OG:A repair function score” value was 0.00287.
In the case of A51S, the “8OG:A repair function score” value is reported as 0.0659.
For P185Q, the “8OG:A repair function score” value was -0.197.
For D512A, the “8OG:A repair function score” value was -0.0123.
With K422T the “8OG:A repair function score” value was -0.156.
For V242K, the “8OG:A repair function score” value was -0.949.
V242C was tested, and the “8OG:A repair function score” value was -0.39.
With A212T the “8OG:A repair function score” value was -0.0386.
For A212V, the “8OG:A repair function score” value was -0.0975.
S276V was tested, and the “8OG:A repair function score” value was -0.0409.
R364W was tested, and the “8OG:A repair function score” value was -1.11.
A220K was tested, and the “8OG:A repair function score” value was -0.891.
L229Q was tested, and the “8OG:A repair function score” value was -0.161.
With Q126M the “8OG:A repair function score” value was 0.0168.
In the case of Q126I, the “8OG:A repair function score” value is reported as -0.00505.
For Q182S, the “8OG:A repair function score” value was 0.0262.
For R398T, the “8OG:A repair function score” value was -0.326.
For V206M, the “8OG:A repair function score” value was -0.563.
In the case of A199D, the “8OG:A repair function score” value is reported as -1.07.
For G309T, the “8OG:A repair function score” value was -0.00848.
In the case of V500A, the “8OG:A repair function score” value is reported as 0.00946.
For Y428K, the “8OG:A repair function score” value was -0.832.
In the case of A291D, the “8OG:A repair function score” value is reported as -0.119.
With R446A the “8OG:A repair function score” value was -0.143.
For Q470F, the “8OG:A repair function score” value was -0.0175.
With Q394N the “8OG:A repair function score” value was 0.483.
For V438F, the “8OG:A repair function score” value was -0.193.
G193I was tested, and the “8OG:A repair function score” value was -0.531.
In the case of Q144V, the “8OG:A repair function score” value is reported as -0.0203.
In the case of R336A, the “8OG:A repair function score” value is reported as -0.0267.
With L369W the “8OG:A repair function score” value was 0.187.
With S378V the “8OG:A repair function score” value was -0.2.
In the case of A431Y, the “8OG:A repair function score” value is reported as -0.0701.
